# “And” between values parts separate entries of the source, which are not always exact repeats. Equal entries are not always repeated.
# Molecular target: angiotensin I-converting enzyme (ACE)
# Test: cell-based or functional assay
row,Binder,IC50 of ACE inhibitory activity
1,NLLPHR [NLLPHR (SEQ ID NO: 3)],0.93 µg/ml and 1.24 µM
2,VSVVQYSR [VSVVQYSR (SEQ ID NO: 4)],0.89 µg/ml and 0.95 µM
3,VIYSRINCR [VIYSRINCR (SEQ ID NO: 5)],0.27 µg/ml and 0.24 µM

# Molecular target: angiotensin I-converting enzyme (ACE)
# Test: cell-based or functional assay
# Remark: another data set of the same source
Binder,ACE inhibitory activity (%) at 1 mg/ml [%],ACE inhibitory activity (%) at 1 µg/ml [%]
VIY,18.5,–
VIYSR [VIYSR (SEQ ID NO: 6)],97.8,12.1
INCR [INCR (SEQ ID NO: 7)],101,29.1
SRINCR [SRINCR (SEQ ID NO: 8)],98.8,27.5

# Molecular target: angiotensin I-converting enzyme (ACE)
# Test: cell-based or functional assay
# Remark: another data set of the same source
row,Binder,ACE inhibition (%) at 1 mg/ml [%]
1,GPLYHS [GPLYHS (SEQ ID NO: 13)],85.8
2,NGPSGQTG [NGPSGQTG (SEQ ID NO: 21)],25.9
3,LLDHRANL [LLDHRANL (SEQ ID NO: 22)],29.2
4,APPHIF [APPHIF (SEQ ID NO: 23)],82
5,HFAASGK [HFAASGK (SEQ ID NO: 24)],27
6,LEQVSAGTT [LEQVSAGTT (SEQ ID NO: 25)],1.9
7,NLLPHR [NLLPHR (SEQ ID NO: 3)],94.9
8,VQSVPAT [VQSVPAT (SEQ ID NO: 26)],36.9
9,VEWKERATE [VEWKERATE (SEQ ID NO: 27)],15.5
10,LLHAKPLN [LLHAKPLN (SEQ ID NO: 28)],79
11,VSVVQYSR [VSVVQYSR (SEQ ID NO: 4)],94.2
12,LIHAIL [LIHAIL (SEQ ID NO: 14)],33.4
13,IKVGGERF [IKVGGERF (SEQ ID NO: 29)],24.3
14,KKLEKKTT [KKLEKKTT (SEQ ID NO: 30)],21.5
15,GVPGIHGS [… (SEQ ID NO: 31)],70.6
16,QGPPGNPG [QGPPGNPG (SEQ ID NO: 32)],2.91
17,MTGLPGPTGP [MTGLPGPTGP (SEQ ID NO: 33)],49
18,VIYSRINCR [VIYSRINCR (SEQ ID NO: 5)],97
19,SFLMRK [SFLMRK (SEQ ID NO: 15)],77.7
20,VLMSQVFKQT [VLMSQVFKQT (SEQ ID NO: 16)],55.1
21,WTIHTP [WTIHTP (SEQ ID NO: 17)],68
22,LPPGKIV [LPPGKIV (SEQ ID NO: 18)],71.7
23,IFERL [IFERL (SEQ ID NO: 19)],45.3
24,FDQFLPIH [FDQFLPIH (SEQ ID NO: 20)],88.4

# Reference: patent US20220169679A1 (THAI UNION GROUP PUBLIC, published 2022)
